PMC3725419, “Structural insights into the activation of MST3 by MO25” (Biochemical and Biophysical Research Communications, 2013)

Molecular target: T1, full length MO25β (human, UniProt Q9H9S4 1-337)
T1 construct: MO25β (mouse protein-25 beta), full length; plasmids are in the supplementary section; also called mouse protein-25 beta; source: E. coli BL21 (DE3) with pRARE2, purified (Glutathione-Sepharose, eluted with Prescission protease)
T1 sequence (looked up): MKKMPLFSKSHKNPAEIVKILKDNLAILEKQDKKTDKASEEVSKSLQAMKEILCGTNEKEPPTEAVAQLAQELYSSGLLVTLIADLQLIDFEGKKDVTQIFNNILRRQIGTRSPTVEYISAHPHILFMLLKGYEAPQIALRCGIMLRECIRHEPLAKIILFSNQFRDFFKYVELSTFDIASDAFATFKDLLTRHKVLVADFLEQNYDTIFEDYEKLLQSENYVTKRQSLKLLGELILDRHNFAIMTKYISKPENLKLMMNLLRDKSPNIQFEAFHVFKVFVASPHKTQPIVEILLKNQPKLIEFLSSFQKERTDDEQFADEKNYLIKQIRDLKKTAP
Experiment: crystal structure; MST3 (19-289) and MO25β mixed in an equimolar ratio, complex isolated on an S200 gel filtration column (20 mM Tris pH 7.5, 200 mM NaCl, 0.5 mM TCEP); sitting drop at 4 °C; two MST3:MO25β complexes in the asymmetric unit; no ATP or inhibitor
Details: both partners purified

binding result: binds
B1: MST3 catalytic fragment (residues 19–289) (domain or fragment)
chain: not shown
notes: numbers count on: isoform b (NCBI NP_001027467.2); plasmids are described in the supplementary section; also called MST3 catalytic domain; source: E. coli BL21 (DE3) with pRARE2, purified (Ni-Sepharose, S200 gel filtration)
